This passage reports self-cleavage results from the RNAGym collection of RNA variant scans (doi:10.7554/elife.80360).

The labels stand for the following.
B1: HDV Ribozyme (parent)
chain: GGCCGGCAUGGUCCCAGCCUCCUCGCUGGCGCCGGCUGGGCAACAUUCCGAGGGGACCGUCCCCUCGGUAAUGGCGAAUGGGACCCA

In the data set the parent is B1. Description: self-cleavage, relative activity (ratio to wild type); higher = more cleavage; co-transcriptional.
As to GGACGGCAUGGUCCCAGCCUCCUCGCUGGCGCCGGCUGGGCAACAUUCCGAGGGGACCGUGCCCUCGGUAAUGGCGAAUGGGACCCA, the self-cleavage is 0.512. Regarding GGACGGCAUGGUCCCAGCCUCCUCGCUGGCGCCGGCUGGGCAACAUUCCAAGGGGACCGUCCCCUCGGUAAUGGCGAAUGGGACCCA, the self-cleavage amounted to 0.545. Under GGACGGCAUGGUCCCAGCCUCCUCGCUGGCGCCGGCUGGGCAACAUUCCUAGGGGACCGUCCCCUCGGUAAUGGCGAAUGGGACCCA stands 0.754; under GGACGGCAUGGUCCCAGCCUCCUCGCUGGCGCCAGCUGGGCAACAUUCCGAGGGGACCGUCCCCUCGGUAAUGGCGAAUGGGACCCA, 0.123; under GGACGGCAUGGUCCCAGCCUCCUCGCUGGCGCCGGCUGGGCAACAUUCCGAUGGGACCGUCCCCUCGGUAAUGGCGAAUGGGACCCA, 0.404. Under GGACGGCAUGGUCCCAGCCUCCUCGCUGGCGCCGGCUGGGCAACAUUCCGAGGGGACCGUCCCCUCGCUAAUGGCGAAUGGGACCCA stands 0.363. With GGACGGCAUGGUCCCAGCCUCCUCGCUGGCGCCGGCUGGGCAACAUUCCGAGGGGACCGUCCCGUCGGUAAUGGCGAAUGGGACCCA, the self-cleavage was determined as 0.32. GGACGGCAUGUUCCCAGCCUCCUCGCUGGCGCCGGCUGGGCAACAUUCCGAGGGGACCGUCCCCUCGGUAAUGGCGAAUGGGACCCA: the self-cleavage stood at 0.138. Under GGACGGCAUGGUCCCAGCCUCCUCGCUUGCGCCGGCUGGGCAACAUUCCGAGGGGACCGUCCCCUCGGUAAUGGCGAAUGGGACCCA stands 0.0536. Under GGACGGCAUGGUCCCAGCCUCCUCGCUAGCGCCGGCUGGGCAACAUUCCGAGGGGACCGUCCCCUCGGUAAUGGCGAAUGGGACCCA stands 0.0138; under GGACGGCAUGGUCCCAGCCUCCUCGCUGGCGCCGGCUGGGCAACAUUCCGAGGGGACCAUCCCCUCGGUAAUGGCGAAUGGGACCCA, 0.739; under GGACGGCAUGGUCCCAGCCUCCUCGCUGGCGCCGGCUGGGCAACAUUCCGAGGGGACCCUCCCCUCGGUAAUGGCGAAUGGGACCCA, 0.668. Under GGACGGCAUGGUCCCAGCCUCCUCGCUGGCCCCGGCUGGGCAACAUUCCGAGGGGACCGUCCCCUCGGUAAUGGCGAAUGGGACCCA stands 0.0166; under GGACGGCAUGGUCCCAGCCUCCUCGCUGGCACCGGCUGGGCAACAUUCCGAGGGGACCGUCCCCUCGGUAAUGGCGAAUGGGACCCA, 0.0507; under GGACAGCAUGGUCCCAGCCUCCUCGCUGGCGCCGGCUGGGCAACAUUCCGAGGGGACCGUCCCCUCGGUAAUGGCGAAUGGGACCCA, 0.0332. For GGACGACAUGGUCCCAGCCUCCUCGCUGGCGCCGGCUGGGCAACAUUCCGAGGGGACCGUCCCCUCGGUAAUGGCGAAUGGGACCCA, the self-cleavage worked out at 0.0931. Consider GGACGCCAUGGUCCCAGCCUCCUCGCUGGCGCCGGCUGGGCAACAUUCCGAGGGGACCGUCCCCUCGGUAAUGGCGAAUGGGACCCA, for which the self-cleavage was 0.0282. Consider GGACGGCAUGGUCCCACCCUCCUCGCUGGCGCCGGCUGGGCAACAUUCCGAGGGGACCGUCCCCUCGGUAAUGGCGAAUGGGACCCA, for which the self-cleavage is 0.0329.

Consider GGACGGCAUGGUCCCAGCCUCCUCGCUGGCGCCGGCUGGGCAACAUUCCGAGGGGACCGUCCCCUCGGUAAUGGCGAAUGGGACACA, for which the self-cleavage turned out to be 0.646. Under GGACGGCAUGGUCCCAGCCUCCUCGCUGGCGCCGGCUGGGCAACAUUCCGAGAGGACCGUCCCCUCGGUAAUGGCGAAUGGGACCCA stands 0.519. The result for GGACGGCAUGGUCCCAGCCUCCUCGCUGGCGCCGGCUGGGCAACAUUCCGAGGGGACCGUCCCCUAGGUAAUGGCGAAUGGGACCCA reads 0.473; that for GGACGGCAUGGUCCCAGCCUCCUCGCUGGCGCCGGCUGGGCAACAUUCCGAGGGGACUGUCCCCUCGGUAAUGGCGAAUGGGACCCA, 0.596; that for GGACGGCAUGGUCCCAGCCUCCUCGCUGGCGCCGGCUGUGCAACAUUCCGAGGGGACCGUCCCCUCGGUAAUGGCGAAUGGGACCCA, 0.0777. On to GGACGGCAUGGUCCCAGCCUCCUCGCUGGCGCCGGCUGGGCAACAUUCCGAGGGGACCGUCCACUCGGUAAUGGCGAAUGGGACCCA, for which the self-cleavage came out at 0.492. Take GGACGGCAUGGUCCCAGCCUCCUCGCUGGCGCCGGCUGGGCAACAUUCCGAGGGGACCGUCCCCUCGGUAAUGGAGAAUGGGACCCA: the self-cleavage turned out to be 0.0784.

Consider GGACGGCAUGGUCCCAGCCUCCUCUCUGGCGCCGGCUGGGCAACAUUCCGAGGGGACCGUCCCCUCGGUAAUGGCGAAUGGGACCCA, for which the self-cleavage is 0.0631. As for GGACGGCAUGGUCCCAGCCUCCUCGCUGGCGCCGGCUGGGCAACAUUCCGAGGGGACCGUCCCCUCGGUAAUGGCGAAUGGGAUCCA, the self-cleavage turned out to be 0.157.

As for GGACGGCAUGGUCCCAGCCUCCUCGCUGGCGCCGGCUGGGCAACAUUCCGAGGGAACCGUCCCCUCGGUAAUGGCGAAUGGGACCCA, the self-cleavage amounted to 0.705. The result for GGACGGCAUGGUCCCAGCCUCCUCGCUGGCGCCGGCUGGCCAACAUUCCGAGGGGACCGUCCCCUCGGUAAUGGCGAAUGGGACCCA reads 0.0923; that for GGACGGCAUGGUCCCAGCCUCCUCGCUGGCGCCGGCUGGUCAACAUUCCGAGGGGACCGUCCCCUCGGUAAUGGCGAAUGGGACCCA, 0.256. The result for GGACGGCAUGGUCCCAGCCUCCUCGCUGGCGCCGGCUGGGCAACAUUCCGAGGGGACCGUCCCCUCAGUAAUGGCGAAUGGGACCCA reads 0.462. With GGACGGCAUGGUCCCAGCCUCCUCGCUGGCGCCGGCUGGGCAACAUUCCGAGGCGACCGUCCCCUCGGUAAUGGCGAAUGGGACCCA, the self-cleavage was determined as 0.34.
